In patent US9658208B2, “Methods and G proteins for screening and identifying ligands of G protein-coupled receptors” (Fred Hutchinson Cancer Research Center, priority 2011, dated 2017):

Biological target: T1, dopamine D4 receptor (Mus musculus, UniProt P51436)
T1 construct: expressed in transfected cells; host or cells: HEK-293
T1 sequence (P51436 1-387): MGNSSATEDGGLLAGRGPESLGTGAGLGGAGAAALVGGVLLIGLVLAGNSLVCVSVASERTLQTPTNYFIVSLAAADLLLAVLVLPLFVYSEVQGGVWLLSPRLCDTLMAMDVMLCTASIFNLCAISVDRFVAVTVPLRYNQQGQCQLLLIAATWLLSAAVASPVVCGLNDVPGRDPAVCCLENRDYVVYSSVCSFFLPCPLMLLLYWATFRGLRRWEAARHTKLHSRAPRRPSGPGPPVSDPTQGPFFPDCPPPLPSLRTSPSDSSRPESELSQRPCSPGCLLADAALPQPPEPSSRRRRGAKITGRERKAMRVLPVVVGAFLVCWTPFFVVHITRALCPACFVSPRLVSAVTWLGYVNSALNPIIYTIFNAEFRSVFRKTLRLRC
Assay: CRE-SEAP reporter gene assay, coupling with dopamine D4
Type: cell-based
Settings: HEK-293 cells, 1 uM dopamine
From the text: The GPCRs examined were those that couple with Gαi/Gαo subunits (serotonin 1b, neuropeptide Y1, leukotriene B4, and dopamine D4), Gαq (GNRH, UDP, and calcium-sensing receptors), and the orphan mammalian sweet taste receptor complex (T1R2 and T1R3) with unknown coupling preference. The Gαs-based chimeric G proteins examined in this example were Gαs-Gαi-5, Gαs-Gαt-13 (SEQ ID NO: 3), Gαs-Gαo-13 (SEQ ID NO: 4), Gαs-Gαi-13 (SEQ ID NO: 5), Gαs-Gαz-6 (SEQ ID NO: 18), Gαs-Gα15-13 (SEQ ID NO: 7), Gαs-Gαk-5 (SEQ ID NO: 2), and Gαs-Gαq-13 (SEQ ID NO: 8). The chimeric G protein constructs were prepared as described herein. For the coupling assay, HEK-293 cells were cotransfected with each of the Gαs-based chimeric G protein constructs of interest together with the CRE-SEAP reporter gene construct and a cDNA encoding the GPCR to be tested. The transfected cells were cultured in the presence or absence of a GPCR ligand and then assayed for SEAP activity.
Chimeric G protein cloning: An insert containing rat Gαs cDNA was cut out using the restriction enzymes SaII and HinDIII, and ligated into pcDNA3.1(−) cut with XhoI and HinDIII. […]
Following transfection, the cells were maintained for 48 hours in 200 ul serum free media containing GPCR ligand. […] Fluorescence was then measured using a CytoFluor 4000 multi well plate reader (Applied Biosystems).

B1: Gαs-Gαt-13: Gαs-based chimeric G protein, final 13 C-terminal amino acids substituted with those of Gαt (protein)
chain: MGCLGNSKTEDQRNEEKAQREANKKIEKQLQKDKQVYRATHRLLLLGAGESGKSTIVKQMRILHVNGFNGEGGEEDVPDYASNSDGEKATKVQDIKNNLKEAIETIVAAMSNLVPPVELANPENQFRVDYILSVMNVPNFDFPPEFYEHAKALWEDEGVRACYERSNEYQLIDCAQYFLDKIDVIKQADYVPSDQDLLRCRVLTSGIFETKFQVDKVNFHMFDVGGQRDERRKWIQCFNDVTAIIFVVASSSYNMVIREDNQTNRLQEALNLFKSIWNNRWLRTISVILFLNKQDLLAEKVLAGKSKIEDYFPEFARYTTPEDATPEPGEDPRVTRAKYFIRDEFLRISTASGDGRHYCYPHFTCAVDTENIRRVFNDCRDIIIKENLKDCGLF
modifications: Chimeric protein
notes: Gαs-based chimeric G protein, final 13 C-terminal amino acids substituted with those of Gαt
coupling with dopamine D4 receptor: did not couple
